What was measured:
[1] = biological target: chicken Tapasin (chTapasin), luminal domain (chicken (Gallus gallus)); test: SPR
[2] = biological target: chicken Tapasin (chTapasin), luminal domain (chicken (Gallus gallus)); test: NMR chemical shift perturbation
[3] = biological target: _(FITC)…, fluorescently labeled high-affinity peptide; test: fluorescence polarisation

Row | Kd [1] | lifetime of the complex [2] | Kd [3] | Substance
1 | 1200 nM | > 200 ms |  | open HLA-B*37:01 (G120C)/β2m (H31C), UV-irradiated (empty) (from UniProt P61769 21-119) (complex)
2 |  |  | 5.5 nM | open B*37:01/chTapasin complex (empty) (from UniProt P61769 21-119)

From paper doi:10.1101/2023.06.23.546255
